Results published in the DeepSol protein solubility set.

Test: soluble on expression in E. coli; label from the status in PepcDB or PDB records

| Sequence | soluble on expression in E. coli |
| --- | --- |
| MSMKGKETMSKQNEKLVVGKLGSSYGIRGWLKVFSYTDNPESIFDYSPWYIDQKGEWVEYKVEGWKRHNKGWVVKLQGLDVREDAHLLTNFEIAIDPASLPELSEDEFYWRELFGMQVVTTNGYDLGVVTDMMETGSNDVLVVKANLKDAFGQKERLIPFLEEQVIKVVDRQAQRIEVDWDPAF | soluble |
| MSLAEKIKVLIVDDQVTSRLLLGDALQQLGFKQITAAGDGEQGMKIMAQNPHHLVISDFNMPKMDGLGLLQAVRANPATKKAAFIILTAQGDRALVQKAAALGANNVLAKPFTIEKMKAAIEAVFGALK | soluble |
| MAETFKIRKLEISDKRKGFIELLGQLTVTGSVTDEEFDRRFEEIRSYGDDHVICVIEEETSGKIAATGSVMIEKKFLRNCGKAGHIEDVVVDSRFRGKQLGKKVVEFLMDHCKSMGCYKVILDCSVENKVFYEKCGMSNKSIQMSKYFD | soluble |
| MSLDAEKQLANITMGLPLSPAADSARSARHALSLIATARPPAFITTIAKEVHRHTALAANTQSQQSIHTTTLARAKGEILRVIEILIEKMPTDVVDLLVEVMDIIMYCLEGSLVKKKGLQECFPAICRFYMVSYYERSHRIAVGARHGSVALYDIRTGKCQTIHGHKGPITAVSFAPDGRYLATYSNTDSHISFWQMNTSLLGSIGMLNSAPQLRCIKTYQVPPVQPASPGSHNALKLARLIWTSNRNVILMAHDGKEHRFMVEGHHHHHH | not soluble |
| MNILVTGAKGFVGRNLCAQLNNIKNGKARCYGDLKIEEVFEYDIDSTSEQLDAWCQKADFVFNLAGVNRPKENVEFMKGNFGFASTLLDTLKKHHNTCPVMLSSSAQASLTGRFGNSEYGRSKKAGEDLFLQYGKDTGAKVLVYRFPNLYGKWCRPNYNSAVATFCNNIANDLPIQVSDSSVVLELLYIDDLVDEMIHALKGEEHHCEFEGLDVHPLVDGRYCYCPVTHKVTLGEIVDLLHQFAEMPKTLMIPEIPSDSFAKRLYSTYLSYLPKEKAIFDLKMNVDQRGSFTELVHTLNCGQVSINISKPGITKGEHWHNTKWEQFIVVSGHGLIQLRKEGTDEVLNYEVSGDKIQSVIMLPGYAHNIINLSDTEDLVTVMYCNEIFNPDKPDTYFDKVKK | not soluble |
| MTSLVVPGLDTLRQWLDDLGMSFFECDNCQALHLPHMQNFDGVFDAKIDLIDNTILFSAMAEVRPSAVLPLAADLSAINASSLTVKAFLDMQDDNLPKLVVCQSLSVMQGVTYEQFAWFVRQSEEQISMVILEANAHQLLLPTDDEGQNNVTENYFLH | soluble |
| MGSDKIHHHHHHMRVGATLARAIALKYNKKLVPVNHGIGHIEIGYLTTEARDPLILYLSGGNTIITTFYKGRFRVFGETLDIALGNMMDVFVREVSLAPPYIINGIHVIDICAEKGNKLLKLPYVVKGQDMSFSGLLTAALRVVGKEKLEDICYSVREIAFDMLLEATERALALTSKKELMIVGGVAASVSLRKKLEELGKEWNVQIKIVPPEFAGDNGAMIAYAGMLAASKGVFIDVDKSYIRPRWRVDEVDIPWRN | not soluble |
| MSRGQIIHSGHFMCSNPHDDLVQDEDEEDVEVDVVEDDDKSMEASSSVHHKNKALDEKPVTFYKFGVGKTQSIAIDVSLNKLNKCIKVAYNKMTTPKWKDFKGLRLHWKQRVRLNNVIWRAYYIEFRKKQPEKPKKPFCYFAVPDDDTTHQKIEGSIVEGMYWKRKMEGVCAQYKRWRIRSKHNLVTDKGGMVATCSSTSVSSMTGELKRKRKHTVPKETIESKLRSYEPPVKLQRSQTPKHTISDEFAWDFDDLDNVFTDDFLNSLSEPYMFPDPRDVYSGNNADIMQPGLLPLQPTIEDIMMSLGDDMPDSPPFHNDRDTMRTPTNDQPSISAQQIPQMRRSASSSASLHQMQVAQAQAQSISQISQPSQQLQHQIQIQQPVAARPHEFMASSIMMDYRLMPTRQSSAITSQMLMLSQSASTLSSQPQYATSTHYSTNNSFLPIRNTMTNQHHLGHTSQHSPWNKQQQSNFLVSLPHQSHVERILNNQPPLVPPPSRSNLLPTQNDPYLPQFLQSTQPTPQPQSHDPMMAPSRSWWLDSPLTASVQSPLSVATPLPLANQTGPQTPLGQLIGSADNGFLFGGNNTPGGFKMSGTTSGVPTLSQRLEQPPISRTSTIFGNVENKPERIFTSLTSQNTPTPSPLDISSLSRLRTSSLNESWKMSHIVEGSPTYQAFAASVTTKPSILESPSTSGDISGPASVPVQASQHPPKIITPPSASSKRKEQEAAMAPLVNRQQSCDVNLLNGKMAVKVEEKSGRHYLPTTPTELKEVTKEEPLLMSAPSSVKSMRRQAPDSTLHPEERKRILHLHAEQNRRSALKDGFDQLMDIIPDLYSGGVKPTNAVVLAKSADHIRRLQAEKWDKTQKIDEAKAKIEKLNQKITSLQSNLPQSSAPSSSSQVDSKTSLETFFDRYVKEGAKKNWRFWVVSYLAEKLKFF | not soluble |
| MNKSHLGTADNPQEVVTAHDIGRLVDVVNVGKGFLRYVGPIHGKDGMFCGIELLEPNGKHDGTFQGVSYFIATPYHGIFAPIFRVTLDAEELPKPPPPNPSNRLSRSALPALQLRNPLTQERKPEEDVMSTSVYVSSSTKPIAIPTKQCRPPETDPMQMSMFSDMMDGSMFSNGSWSDIADSMITSNCTFTVRKGLPIDDDGDLMSVPMVQSVFNIDREALRREEQLQSSIVLGESRIGVEHLPIIEDENELETPLVETRTMPLPNDLNANFSNKNSTTTFVEPETPKVEIRENGNLDNSIETPPQQSPSGSSMVSHESDSSSKKDDTKSDKSPTKKSQKMEEKPVVKKKEEPAAPPPPPKFPVKQKAPSKHQLMMEQLKASIEAEKTKPKKEIKSRVSLLPPPAPKAPQKENKEGGEMTETPRRTITKTPLKTVNAKAKTSPTPPVERQKKERKPLYVAPPAKERVEKEKKIPSKPVVSPPTTAEKKPVVSSIPSTSSASKGPFPTSSFAGGKLQGPRKTSSSSTTTSAKKQKNPPIDEKEKLSRLQHSTHAFEATLIVMNRINEDNERKLGNISEQYEKKVSELGDLKKMLDEARKKFEEDVEQMKNSNQQVIRNHANAVESLQKTHETQIAEKNKEFERNFEEERARREAEVCAMNNRHQKVVACLDEKISEAEKQCEQLNVDKKVLQAALANDCDHRNQMLTKEISSLQTALEMKSAEMKELRQKNQNLSLQVDEIPLKELEISKWKHKSNEYKQMLDQKINGEKILVQQIEDLRRKQIHDEEEKEAMKRSFDLMQFKYENGDDPNVTSVMSAPMESRFSTPTKVQFRSRSSASGSRPISMATSNGGDQRLSTSSHHDDSMNRSTISMYTSHIRLPENHADDVIYAPDEIISSRSGSISQRLAISIENDGEPTIKSESSRIGNTSDSGIGLVM | not soluble |
| MNAPPAWAADILKKASSQALDLYNKGIGGNVYQGERIAGLGTMTKNALTGLEQAVGQYNNPALTQWFNAPTQSAHNLLGMAKGDWIGNNSKFNAALQSALSKTSDAINQSMAGAGRYGSGAHTGVLADELGALATNAAAQQYNQDIHNMMNANQMIDRSLYDQVNAANNYYQGQSNAQSNALKGGLIQDVNRQNALDAERQKWTEQDNQAWNQLERLLRVGTQAAGNYGTTSGKSTTMPSVTKDPLRDAQQVLGLMGGILGLCDVRAKENIVPVGEKNGYPLYVFNYKGDPQRYCGVLAQEVLRLKPEAVFVNAKTKLLHVDYNKIGLKMKKISEPKKRIATFFSALFARFPFLQKGYLLLEHHHHHH | soluble |
| MKVLAFDTSSKALSLAILEDKQVLAETTINIKKNHSITLMPAIDFLMASLDWTPKDLDRIVVAEGPGSYTGLRIAVATAKTLAHTLNIELVGMSSLLALVPHQQEGLFVPLMDARRNNVYAGFYENAKPVMAEAHLSFEEVLEKVKGTSQVTFVGEVGPFVEQIQKHLPRTDYKETLPNAANLALLAWDKEADSLHDFVPNYLKRVEAEENWLKNHTESGESYIKRL | not soluble |
| MQIPHGELRTLTYHSNALKSERQMYVWTPPGYSESSKPLPVLYFYHGFGDTGASAVVQGRIPQMMDNLLAEKKIEPMLVVIPDTETDVPGIIPEEYPPQERRKVFYPRNALAADRELIHDIIPAIGKRFNVRQDANGRALAGLSQGGYQALVSGMSHLDHFGWLATFSGVTTETVPNMAVAAQLERPEQINQQLKNLTVVIGETDNITGKDIAGLKTMLEQKNIRFDYTHYPNLGHEMDVWRPAYSEFVQKLFKLEHHHHHH | not soluble |
| MTLPRLILPLLIAAACALGGCAYNPDLGRDQLLIVNDNNLARDGEKAWADALRTSHVSKEPRKNARVQAVGQRVIVAAGLAGRPWEYAVFLEEAPNAFVLPGGYVGVTVGLLSLVENDDQLAAVIGHEAGHVVARHAAERVSQETTSKVLLGIAKAAAGGTEFGKLLKDHGEDATRYGLLLPFSRKQELEADKLGVDFMQRAGYRPREAVKLWRNMQALDGGKSGGDLGSTHPSDAVRIQELERYLASKGWLEHHHHHH | not soluble |
| MKVAILGASGWIGSHLAAEAKMRGHEVVAVVRDPAKVTLKGVAVQQLDILNPESSLKSVLEGVDAVIASIGGRAAGNHEMVAKTAQRLLNELPQAGVARLLWVGGAGSLEVAPGVKLVTVPGFPEEYKGEALAQGEALEVFRASNSDVNWTFVSPAAEIFPGDKQGQYRVGGDQLLTDSEGNSRISVADYAVALIDELEYAEHPRQRIGVAYLEHHHHHH | not soluble |
| MEKKVQIAVYENENFKRVAEIVKKKSIATVCEEALCPNIMECWGSGTATFMIMGSICTRGCRFCYVLKGKPSPLDDEEPKRVAEAVKEMELDYVVITSVDRDDLSDGGAQHFANVVKTVKELNPGIIVEVLTPDFRGNIDAVKKVIDAGVDVFAHNVETVRRLTPIVRDPRASYEQSLNVLKYAENVIKKSSILLGLGETWDEIVETMRDLRSVGVSILVLSQYMRPSRKQLEVKKRYTLEEFKELEEIAYSMGFSAVISLPLARTSYKAKEAYFRAIENAKNHS | not soluble |
| MKIAVLGASGWIGGTILNEALSRGHEVVALVRDPSKLGETAAEVRSVDLAKPLTADTFAGVDVLIASVGGRADLNHSLVAKTVNNLLALLPLAKVPRLLWVGGAGSLEVAPGVTLVSSPDFPPAYKDEALAQGEALKAFRAANTAVNWTFVSPAAEIYPGESEGLYRLGGDSFFTDAKGRSRISVTDYAKAMLDEAEKGAHPNQRISVAYLEHHHHHH | soluble |
| MSEEIVLKAGGKIYQGWTKIGITRSLEAMSGAFDLEMTYKFLGNDAQYKAFIEPIKQGQACTVDIGGERVITGYVDDWVPSYDESTITISVSGRDKTADLVDCSIDYPSGQFNNQTLTQIADIVCKPFGIKVIVNTDVGEPFQRIQIEQGETPHELLARLAKQRGVLLTSDTFGNLVITRASKTKAGVSLILGDNVKAARGRFSWRQRFSKFTIKAAGAAHGQWDSAGLPTVGGIKADVTDSEIGRYRPLIIVNEEVTTAEGAAKRGQWERQRSIGKSNMAEYTVTGWRIPQTGKLWNINTLVPVIDEIMGLDEEMLIASILFSEDDAGRLAVISVVRPDAMDIPAQIVKDTKLGGSTW | soluble |
| MGSDKIHHHHHHMQTLTIDVGGSKALFELQLAGHTEQYKIPTGEGFKIEELNNQIAALERDYDLQDYQLAIAVPGLVQHHRLVACKSLPGLNGLSIDTVKTQGTLKIISNDIDAGMQALCDAKYACELLVMCGSGIGMSIAFNGQVFSGATGVAGELGHCRIMSESGEFRLEQLASGDSVRSRNITSQEDLYRAGSYLGMGLAWAVNLLNPNRIWLAGGMMNSTPYYKGCIDNLKRMALSAPLAEMKIHRVDDMETLVCRGLSVILARDVSLT | not soluble |
| MSTGITYDEDRKTQLIAQYESVREVVNAEAKNVHVNENASKILLLVVSKLKPASDIQILYDHGVREFGENYVQELIEKAKLLPDDIKWHFIGGLQTNKCKDLAKVPNLYSVETIDSLKKAKKLNESRAKFQPDCNPILCNVQINTSHEDQKSGLNNEAEIFEVIDFFLSEECKYIKLNGLMTIGSWNVSHEDSKENRDFATLVEWKKKIDAKFGTSLKLSMGMSADFREAIRQGTAEVRIGTDIFGARPPKNEARII | soluble |
